What is called Kd is the constant that tells how readily two partners part at equilibrium. Low readings indicate higher affinity, high ones lower affinity.

This assay concerns the target T1, XPF (UniProt Q92889 1-916).
T1 sequence (looked up): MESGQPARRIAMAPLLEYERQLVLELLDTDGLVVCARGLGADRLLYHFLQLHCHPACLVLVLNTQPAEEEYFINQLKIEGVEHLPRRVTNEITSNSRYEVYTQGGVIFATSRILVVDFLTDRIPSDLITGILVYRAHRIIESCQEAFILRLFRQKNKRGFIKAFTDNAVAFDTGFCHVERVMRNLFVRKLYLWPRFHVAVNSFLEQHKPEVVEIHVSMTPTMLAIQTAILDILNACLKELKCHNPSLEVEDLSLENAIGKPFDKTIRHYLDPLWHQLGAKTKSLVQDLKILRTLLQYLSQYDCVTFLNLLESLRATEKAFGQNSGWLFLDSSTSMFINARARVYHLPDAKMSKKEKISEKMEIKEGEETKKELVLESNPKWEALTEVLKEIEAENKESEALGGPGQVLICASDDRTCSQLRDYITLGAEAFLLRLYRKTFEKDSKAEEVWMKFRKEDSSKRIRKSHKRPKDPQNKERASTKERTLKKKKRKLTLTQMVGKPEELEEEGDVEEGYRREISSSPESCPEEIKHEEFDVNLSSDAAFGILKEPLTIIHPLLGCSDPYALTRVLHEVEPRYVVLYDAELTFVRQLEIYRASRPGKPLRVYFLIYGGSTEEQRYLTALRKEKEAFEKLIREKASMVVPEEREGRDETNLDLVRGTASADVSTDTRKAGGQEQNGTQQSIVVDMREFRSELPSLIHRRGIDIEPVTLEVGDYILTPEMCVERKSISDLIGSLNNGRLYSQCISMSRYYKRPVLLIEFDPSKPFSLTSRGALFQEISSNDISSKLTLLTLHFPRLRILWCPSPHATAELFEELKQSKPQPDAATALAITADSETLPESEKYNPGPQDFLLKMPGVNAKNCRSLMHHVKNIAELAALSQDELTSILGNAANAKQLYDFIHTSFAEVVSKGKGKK
Nature of the assay: SPR.

B1: ERCC1 (natural protein, UniProt P07992 1-297, looked up)
chain: MDPGKDKEGVPQPSGPPARKKFVIPLDEDEVPPGVAKPLFRSTQSLPTVDTSAQAAPQTYAEYAISQPLEGAGATCPTGSEPLAGETPNQALKPGAKSNSIIVSPRQRGNPVLKFVRNVPWEFGDVIPDYVLGQSTCALFLSLRYHNLHPDYIHGRLQSLGKNFALRVLLVQVDVKDPQQALKELAKMCILADCTLILAWSPEEAGRYLETYKAYEQKPADLLMEKLEQDFVSRVTECLTTVKSVNKTDSQTLLTTFGSLEQLIAASREDLALCPGLGPQKARRLFDVLHEPFLKVP
As for B1, the Kd was roughly 5 nM.

(Values after PMC3488251 (Nucleic Acids Research, 2012).)
